Tests used:
[1] = assay type: physicochemical; conditions: pH 7.4
Description: The trimers were labeled with ^68Ga for biodistribution and small-animal PET experiments employing a fully automated method.[39] Non-radioactive reference compounds were obtained by complexation of equimolar amounts of ^natGa^3+ in form of the aq. chloride solution.[39] The polarity of the ^68Ga or ^natGa^3+ containing conjugates, respectively, was assessed by two established proxies, namely the n-octanol/water distribution coefficient at pH 7.4, log D7.4, and the retention time tR on a reverse-phase HPLC column with a suitable liquid-phase gradient (10–50% acetonitrile in water with 0.1% trifluoroacetic acid) (see Fig. 2a). […] A measurable decrease of the log D7.4 was only observed for ≥3 Tyr. […]
(§1) Unless otherwise noted, the materials and the instrumentation used (analytical and preparative HPLC, ESI-MS, gamma counter, centrifuge), and the experimental procedures (^68Ga radiolabeling and radio-TLC for quality control, determination of log D7.4, cultivation of H2009 human lung adenocarcinoma cells, generation of tumor xenografts in CB17 SCID mice, small-animal PET, and biodistribution) were described before.[19] All animal experiments have been carried out according to applicable law and institutional guidelines of Technical University of Munich, and were approved by the responsible local authority (Regierung von Oberbayern). The H2009 cells were regularly authenticated and tested for mycoplasma contamination. The affinities of the pentynoic amide functionalized peptides were determined employing a well-established ELISA protocol on immobilized integrins.[36] TRAP-triazide,[38]FF (previously termed AvB6),[32] and YY (also referred to as Tyr2-alkyne)[33] were synthesized as described previously. RP-HPLC for assessment of compound polarity was done on a 150 × 4.6 mm ReproSil-Pur 120 C18-AQ 5 μm column, with a flow of 0.75 mL min^−1 and a gradient of 10–50% MeCN in water, both containing 0.1% trifluoroacetic acid, within 15 min. The required ^natGa-complexes of the peptide trimers were synthesized by reaction with equimolar amounts of aq. GaCl3 as described.[19]

in vivo = test: in vivo; set-up: species or system mice; conditions: CB17 SCID, mouse, total radioactivity
From the text: The biodistribution of all ^68Ga-labeled peptide trimers was investigated in severe combined immunodeficiency (SCID) mice bearing subcutaneous xenografts of the αvβ6-integrin expressing human lung adenocarcinoma cell line H2009 on their right shoulders.
as §1

[2] = tumor/organ ratio Heart (myocard)
[3] = tumor/organ ratio Large intestine (empty)
[4] = tumor/organ ratio Small intestine (empty)
[5] = tumor/organ ratio Stomach (empty)

SMILES | log D7.4 [1] | logD [1] | tissue uptake at 1.5 h (in vivo; Adrenals uptake) | tissue uptake at 1.5 h (in vivo; Blood uptake) | tissue uptake at 1.5 h (in vivo; Heart (myocard) uptake) | tissue uptake at 1.5 h (in vivo; Kidneys uptake) | tissue uptake at 1.5 h (in vivo; Large intestine (empty) uptake) | tissue uptake at 1.5 h (in vivo; Liver uptake) | tissue uptake at 1.5 h (in vivo; Lung uptake) | tissue uptake at 1.5 h (in vivo; Muscle uptake) | tissue uptake at 1.5 h (in vivo; Pancreas uptake) | tissue uptake at 1.5 h (in vivo; Small intestine (empty) uptake) | tissue uptake at 1.5 h (in vivo; Spleen uptake) | tissue uptake at 1.5 h (in vivo; Stomach (empty) uptake) | tissue uptake at 1.5 h (in vivo; Tumor H2009 uptake) | tissue to tissue ratio at 1.5 h (in vivo; tumor/organ ratio Adrenals) | tissue to tissue ratio at 1.5 h (in vivo; tumor/organ ratio Blood) | tissue to tissue ratio at 1.5 h (in vivo; [2]) | tissue to tissue ratio at 1.5 h (in vivo; tumor/organ ratio Kidneys) | tissue to tissue ratio at 1.5 h (in vivo; [3]) | other results
CC(C)C[C@@H]1NC(=O)[C@H](CC(=O)O)NC(=O)CNC(=O)[C@H](CCCNC(=N)N)NC(=O)[C@H](Cc2ccccc2)NC(=O)[C@H](CCCCNC(=O)CCc2cn(CCCNC(=O)CCP(=O)(O)CN3CCN(CP(=O)(O)CCC(=O)NCCCn4cc(CCC(=O)NCCCC[C@H]5C(=O)N[C@@H](Cc6ccccc6)C(=O)N[C@@H](CCCNC(=N)N)C(=O)NCC(=O)N[C@@H](CC(=O)O)C(=O)N[C@@H](CC(C)C)C(=O)N[C@@H](C)C(=O)N[C@@H](Cc6ccccc6)C(=O)N6CCC[C@@H]6C(=O)N5C)nn4)CCN(CP(=O)(O)CCC(=O)NCCCn4cc(CCC(=O)NCCCC[C@H]5C(=O)N[C@@H](Cc6ccccc6)C(=O)N[C@@H](CCCNC(=N)N)C(=O)NCC(=O)N[C@@H](CC(=O)O)C(=O)N[C@@H](CC(C)C)C(=O)N[C@@H](C)C(=O)N[C@@H](Cc6ccccc6)C(=O)N6CCC[C@@H]6C(=O)N5C)nn4)CC3)nn2)N(C)C(=O)[C@H]2CCCN2C(=O)[C@H](Cc2ccccc2)NC(=O)[C@H](C)NC1=O (68Ga complex, metal not drawn) [Y0] | −1.4 to −1.5 | -1.5 ± 0.1 | 2.4 ± 0.38 %ID/g | 4.01 ± 0.74 %ID/g | 2.13 ± 0.42 %ID/g | 90.7 ± 6.7 %ID/g | 5.74 ± 1.36 %ID/g | 7.55 ± 0.78 %ID/g | 16.9 ± 5.34 %ID/g | 1.1 ± 0.22 %ID/g | 0.91 ± 0.22 %ID/g | 4.2 ± 1.07 %ID/g | 5.21 ± 1.05 %ID/g | 10.3 ± 1.62 %ID/g | 8.73 ± 0.81 %ID/g | – | – | – | – | – | –
CC(C)C[C@@H]1NC(=O)[C@H](CC(=O)O)NC(=O)CNC(=O)[C@H](CCCNC(=N)N)NC(=O)[C@H](Cc2ccccc2)NC(=O)[C@H](CCCCNC(=O)CCc2cn(CCCNC(=O)CCP(=O)(O)CN3CCN(CP(=O)(O)CCC(=O)NCCCn4cc(CCC(=O)NCCCC[C@H]5C(=O)N[C@@H](Cc6ccccc6)C(=O)N[C@@H](CCCNC(=N)N)C(=O)NCC(=O)N[C@@H](CC(=O)O)C(=O)N[C@@H](CC(C)C)C(=O)N[C@@H](C)C(=O)N[C@@H](Cc6ccccc6)C(=O)N6CCC[C@@H]6C(=O)N5C)nn4)CCN(CP(=O)(O)CCC(=O)NCCCn4cc(CCC(=O)NCCCC[C@H]5C(=O)N[C@@H](Cc6ccccc6)C(=O)N[C@@H](CCCNC(=N)N)C(=O)NCC(=O)N[C@@H](CC(=O)O)C(=O)N[C@@H](CC(C)C)C(=O)N[C@@H](C)C(=O)N[C@@H](Cc6ccc(O)cc6)C(=O)N6CCC[C@@H]6C(=O)N5C)nn4)CC3)nn2)N(C)C(=O)[C@H]2CCCN2C(=O)[C@H](Cc2ccccc2)NC(=O)[C@H](C)NC1=O (68Ga complex, metal not drawn) [Y1F] | −1.4 to −1.5 | -1.4 ± 0.1 | 1.26 ± 0.24 %ID/g | 2.57 ± 0.33 %ID/g | 1.2 ± 0.16 %ID/g | 111 ± 15.3 %ID/g | 4.43 ± 1.28 %ID/g | 3.86 ± 0.17 %ID/g | 8.81 ± 0.64 %ID/g | 0.97 ± 0.48 %ID/g | 0.61 ± 0.1 %ID/g | 2.86 ± 0.57 %ID/g | 3.48 ± 0.49 %ID/g | 7.37 ± 1.23 %ID/g | 8.08 ± 1.35 %ID/g | 6.5 ± 0.8 | 3.2 ± 0.6 | 6.8 ± 1.2 | 0.1 | 2 ± 0.9 | tissue to tissue ratio at 1.5 h (in vivo; tumor/organ ratio Liver): 2.1 ± 0.4; tissue to tissue ratio at 1.5 h (in vivo; tumor/organ ratio Lung): 0.9 ± 0.1; tissue to tissue ratio at 1.5 h (in vivo; tumor/organ ratio Muscle): 9.5 ± 3.2; tissue to tissue ratio at 1.5 h (in vivo; tumor/organ ratio Pancreas): 13.3 ± 2.3; tissue to tissue ratio at 1.5 h (in vivo; [4]): 2.9 ± 0.9; tissue to tissue ratio at 1.5 h (in vivo; tumor/organ ratio Spleen): 2.4 ± 0.2; tissue to tissue ratio at 1.5 h (in vivo; [5]): 1.1 ± 0.3
CC(C)C[C@@H]1NC(=O)[C@H](CC(=O)O)NC(=O)CNC(=O)[C@H](CCCNC(=N)N)NC(=O)[C@H](Cc2ccccc2)NC(=O)[C@H](CCCCNC(=O)CCc2cn(CCCNC(=O)CCP(=O)(O)CN3CCN(CP(=O)(O)CCC(=O)NCCCn4cc(CCC(=O)NCCCC[C@H]5C(=O)N[C@@H](Cc6ccccc6)C(=O)N[C@@H](CCCNC(=N)N)C(=O)NCC(=O)N[C@@H](CC(=O)O)C(=O)N[C@@H](CC(C)C)C(=O)N[C@@H](C)C(=O)N[C@@H](Cc6ccccc6)C(=O)N6CCC[C@@H]6C(=O)N5C)nn4)CCN(CP(=O)(O)CCC(=O)NCCCn4cc(CCC(=O)NCCCC[C@H]5C(=O)N[C@@H](Cc6ccc(O)cc6)C(=O)N[C@@H](CCCNC(=N)N)C(=O)NCC(=O)N[C@@H](CC(=O)O)C(=O)N[C@@H](CC(C)C)C(=O)N[C@@H](C)C(=O)N[C@@H](Cc6ccccc6)C(=O)N6CCC[C@@H]6C(=O)N5C)nn4)CC3)nn2)N(C)C(=O)[C@H]2CCCN2C(=O)[C@H](Cc2ccccc2)NC(=O)[C@H](C)NC1=O (68Ga complex, metal not drawn) [Y1Y] | −1.4 to −1.5 | -1.5 ± 0.1 | 1.57 ± 0.41 %ID/g | 2.54 ± 0.37 %ID/g | 1.54 ± 0.61 %ID/g | 91.2 ± 9.95 %ID/g | 4.1 ± 0.84 %ID/g | 4.39 ± 0.46 %ID/g | 6.76 ± 2.02 %ID/g | 0.75 ± 0.17 %ID/g | 0.64 ± 0.11 %ID/g | 2.72 ± 0.36 %ID/g | 3.85 ± 0.86 %ID/g | 6.78 ± 0.72 %ID/g | 8.16 ± 2.01 %ID/g | 5.3 ± 1.5 | 3.2 ± 0.7 | 5.7 ± 2 | 0.1 | 2 ± 0.5 | tissue to tissue ratio at 1.5 h (in vivo; tumor/organ ratio Liver): 1.8 ± 0.3; tissue to tissue ratio at 1.5 h (in vivo; tumor/organ ratio Lung): 1.2 ± 0.2; tissue to tissue ratio at 1.5 h (in vivo; tumor/organ ratio Muscle): 11.2 ± 3.4; tissue to tissue ratio at 1.5 h (in vivo; tumor/organ ratio Pancreas): 12.7 ± 2.9; tissue to tissue ratio at 1.5 h (in vivo; [4]): 3 ± 0.7; tissue to tissue ratio at 1.5 h (in vivo; tumor/organ ratio Spleen): 2.2 ± 0.5; tissue to tissue ratio at 1.5 h (in vivo; [5]): 1.2 ± 0.2
CC(C)C[C@@H]1NC(=O)[C@H](CC(=O)O)NC(=O)CNC(=O)[C@H](CCCNC(=N)N)NC(=O)[C@H](Cc2ccccc2)NC(=O)[C@H](CCCCNC(=O)CCc2cn(CCCNC(=O)CCP(=O)(O)CN3CCN(CP(=O)(O)CCC(=O)NCCCn4cc(CCC(=O)NCCCC[C@H]5C(=O)N[C@@H](Cc6ccccc6)C(=O)N[C@@H](CCCNC(=N)N)C(=O)NCC(=O)N[C@@H](CC(=O)O)C(=O)N[C@@H](CC(C)C)C(=O)N[C@@H](C)C(=O)N[C@@H](Cc6ccc(O)cc6)C(=O)N6CCC[C@@H]6C(=O)N5C)nn4)CCN(CP(=O)(O)CCC(=O)NCCCn4cc(CCC(=O)NCCCC[C@H]5C(=O)N[C@@H](Cc6ccccc6)C(=O)N[C@@H](CCCNC(=N)N)C(=O)NCC(=O)N[C@@H](CC(=O)O)C(=O)N[C@@H](CC(C)C)C(=O)N[C@@H](C)C(=O)N[C@@H](Cc6ccc(O)cc6)C(=O)N6CCC[C@@H]6C(=O)N5C)nn4)CC3)nn2)N(C)C(=O)[C@H]2CCCN2C(=O)[C@H](Cc2ccccc2)NC(=O)[C@H](C)NC1=O (68Ga complex, metal not drawn) [Y2F] | −1.4 to −1.5 | -1.5 ± 0.1 | 0.84 ± 0.07 %ID/g | 1.62 ± 0.2 %ID/g | 0.76 ± 0.06 %ID/g | 107 ± 7.49 %ID/g | 3.96 ± 1.16 %ID/g | 2.09 ± 0.17 %ID/g | 5.62 ± 1.34 %ID/g | 0.66 ± 0.12 %ID/g | 0.38 ± 0.04 %ID/g | 2.51 ± 0.5 %ID/g | 3.84 ± 1.14 %ID/g | 6.99 ± 3.4 %ID/g | 7.99 ± 1.62 %ID/g | 9.6 ± 2.2 | 4.9 ± 1 | 10.6 ± 2 | 0.1 | 2.1 ± 0.5 | tissue to tissue ratio at 1.5 h (in vivo; tumor/organ ratio Liver): 3.8 ± 0.9; tissue to tissue ratio at 1.5 h (in vivo; tumor/organ ratio Lung): 1.4 ± 0.2; tissue to tissue ratio at 1.5 h (in vivo; tumor/organ ratio Muscle): 12.2 ± 1.5; tissue to tissue ratio at 1.5 h (in vivo; tumor/organ ratio Pancreas): 20.8 ± 3.9; tissue to tissue ratio at 1.5 h (in vivo; [4]): 3.2 ± 0.4; tissue to tissue ratio at 1.5 h (in vivo; tumor/organ ratio Spleen): 2.2 ± 0.5; tissue to tissue ratio at 1.5 h (in vivo; [5]): 1.3 ± 0.3

Reference: article PMC10718521, “Complexity of αvβ6-integrin targeting RGD peptide trimers: emergence of non-specific binding by synergistic interaction” (RSC Medicinal Chemistry, 2023)
